Results taken from IntAct's records for PubMed 21157427.

B1: Serine/arginine-rich splicing factor 2 (Homo sapiens), Q01130 (parent)
chain: MSYGRPPPDVEGMTSLKVDNLTYRTSPDTLRRVFEKYGRVGDVYIPRDRYTKESRGFAFVRFHDKRDAEDAMDAMDGAVLDGRELRVQMARYGRPPDSHHSRRGPPPRRYGGGGYGRRSRSPRRRRRSRSRSRSRSRSRSRSRYSRSKSRSRTRSRSRSTSKSRSARRSKSKSSSVSRSRSRSRSRSRSRSPPPVSKRESKSRSRSKSPPKSPEEEGAVSS

Variants of: B1
Conditions: with kat5_human KAT5, Q92993
Chain of kat5_human KAT5, Q92993 (Q92993 whole entry, looked up): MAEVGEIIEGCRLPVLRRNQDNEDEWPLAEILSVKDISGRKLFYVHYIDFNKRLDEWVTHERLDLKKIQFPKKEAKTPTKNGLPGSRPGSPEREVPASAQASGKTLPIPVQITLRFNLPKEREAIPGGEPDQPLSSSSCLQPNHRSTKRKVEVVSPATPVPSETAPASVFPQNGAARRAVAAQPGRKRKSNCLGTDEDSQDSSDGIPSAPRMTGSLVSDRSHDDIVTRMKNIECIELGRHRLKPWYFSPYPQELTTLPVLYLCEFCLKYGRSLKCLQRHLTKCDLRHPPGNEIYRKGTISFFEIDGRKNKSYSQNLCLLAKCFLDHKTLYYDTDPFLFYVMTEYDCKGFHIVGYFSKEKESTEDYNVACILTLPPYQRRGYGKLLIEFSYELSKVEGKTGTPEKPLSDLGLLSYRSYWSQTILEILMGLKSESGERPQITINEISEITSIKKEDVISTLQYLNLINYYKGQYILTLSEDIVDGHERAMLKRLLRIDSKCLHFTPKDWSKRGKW

effect of a mutation on the interaction | Variant
disrupting interaction | MSYGRPPPDVEGMTSLKVDNLTYRTSPDTLRRVFEKYGRVGDVYIPRDRYTRESRGFAFVRFHDKRDAEDAMDAMDGAVLDGRELRVQMARYGRPPDSHHSRRGPPPRRYGGGGYGRRSRSPRRRRRSRSRSRSRSRSRSRSRYSRSKSRSRTRSRSRSTSKSRSARRSKSKSSSVSRSRSRSRSRSRSRSPPPVSKRESKSRSRSKSPPKSPEEEGAVSS [K52R]
